Test results: the supplement of paper PMC7125110
± gives the standard error. For some assays here: Variants at the floor of the assay were thinned out.

B1: glmS ribozyme (parent)
chain: AUAAAAGCGCCAGAACUACAGAAAUGUAGUUGACGAGGAGGAGGUUUAUCGAAUUUUCGGCGGAUGCCUCCAAA

Key:
Settings in all cases: with glucosamine-6-phosphate
glucosamine-6-phosphate [1] = variants of: B1; assay: kcat; higher = faster cleavage; RNA array
In short: (§1)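 Barcoded ribozyme variants, transcribed in situ by E. coli RNA polymerase on sequenced MiSeq chips, were followed via a hybridised Cy3 probe at 37 °C. Glucosamine-6-phosphate ranged from 40 μM to 10 mM in HEPES/KCl/Mg(OAc)2 buffer. kobs came from decay fits to per-tile medians, and kcat and KM from weighted Michaelis–Menten fits.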

glucosamine-6-phosphate [2] = variants of: B1; assay: KM; higher = weaker cofactor use; RNA array
In short: as §1

glucosamine-6-phosphate [3] = variants of: B1; assay: self-cleavage kobs at 40 uM GlcN6P; higher = faster cleavage; RNA array
In short: as §1

glucosamine-6-phosphate [4] = variants of: B1; assay: self-cleavage kobs at 160 uM GlcN6P; higher = faster cleavage; RNA array
In short: as §1

glucosamine-6-phosphate [5] = variants of: B1; assay: self-cleavage kobs at 640 uM GlcN6P; higher = faster cleavage; RNA array
In short: as §1

glucosamine-6-phosphate [6] = variants of: B1; assay: self-cleavage kobs at 2500 uM GlcN6P; higher = faster cleavage; RNA array
In short: as §1

glucosamine-6-phosphate [7] = variants of: B1; assay: self-cleavage kobs at 10000 uM GlcN6P; higher = faster cleavage; RNA array
In short: as §1

Variant | kcat (glucosamine-6-phosphate [1]) [s⁻¹] | KM (glucosamine-6-phosphate [2]) [µM] | self-cleavage kobs at 40 uM GlcN6P (glucosamine-6-phosphate [3]) [s⁻¹] | self-cleavage kobs at 160 uM GlcN6P (glucosamine-6-phosphate [4]) [s⁻¹] | self-cleavage kobs at 640 uM GlcN6P (glucosamine-6-phosphate [5]) [s⁻¹] | self-cleavage kobs at 2500 uM GlcN6P (glucosamine-6-phosphate [6]) [s⁻¹] | self-cleavage kobs at 10000 uM GlcN6P (glucosamine-6-phosphate [7]) [s⁻¹]
U30A A64G | 0.00654 ± 0.00069 | 1670 ± 240 | 0.000149 ± 2.6e-05 | 0.000656 ± 0.00022 | 0.00193 ± 0.00045 | 0.0035 ± 0.0008 | 0.00607 ± 0.0014
A52G G63C | – | – | < 1e-05 | – | – | – | –
A6G A53U | 0.000303 ± 3.8e-05 | 1940 ± 560 | – | – | 6.78e-05 ± 1.6e-05 | 0.000191 ± 2.7e-05 | 0.000241 ± 3.5e-05
A12G G32A A33U C70G | – | – | < 1e-05 | < 1e-05 | < 1e-05 | – | –
G40U U54G | – | – | 0.000133 ± 1.9e-05 | – | 0.00124 ± 0.00029 | 0.00192 ± 0.00049 | 0.00364 ± 0.00066
U57A C68G | 3.34e-05 ± 1.3e-05 | – | – | – | 6.21e-05 ± 1.7e-05 | 4.55e-05 ± 1.7e-05 | –
G9C U31G U54C | – | – | < 1e-05 | – | – | – | –
A39C G40C | 0.000145 ± 1.6e-06 | 1590 ± 47 | – | – | 4.2e-05 ± 9e-06 | 8.75e-05 ± 1.8e-05 | 0.000126 ± 1.5e-05
U55A G59A | 6.57e-05 ± 1.4e-05 | – | – | – | – | 5.76e-05 ± 1.7e-05 | 5.69e-05 ± 1.3e-05
A39U C58U | 1.89e-05 ± 1e-06 | – | – | – | – | – | –
G37A G63A | – | 278 ± 110 | – | – | – | – | –
C8U C67A | < 1e-05 | – | – | – | < 1e-05 | – | –
G59A G60C | – | 30.9 ± 14 | – | – | – | – | –
A6U G51A | – | – | < 1e-05 | – | – | – | < 1e-05
A42U A53G | 0.000266 ± 4.7e-05 | 2160 ± 870 | – | – | 4.83e-05 ± 1.2e-05 | 0.000175 ± 2.1e-05 | 0.000206 ± 2.4e-05
C11A G51A | – | – | < 1e-05 | – | < 1e-05 | – | < 1e-05
G29U A64U | 1.06e-05 ± 2.5e-07 | 4920 ± 300 | – | < 1e-05 | < 1e-05 | – | –
G32A A39C | 0.00032 ± 6.8e-05 | 3190 ± 1300 | – | – | 6.63e-05 ± 1.2e-05 | 0.000114 ± 2.1e-05 | 0.000259 ± 3.2e-05
G32U G44U U45A | – | – | < 1e-05 | – | – | – | –
G35U G63U G66C C67A | – | – | < 1e-05 | – | – | – | < 1e-05
G41C C67U | – | – | < 1e-05 | < 1e-05 | < 1e-05 | < 1e-05 | < 1e-05
G41C U69C | – | 84.1 ± 23 | – | – | – | – | –
G32U U46G C61U | – | – | < 1e-05 | – | – | < 1e-05 | < 1e-05

Variant | kcat (glucosamine-6-phosphate [1]) [s⁻¹] | KM (glucosamine-6-phosphate [2]) [µM] | self-cleavage kobs at 40 uM GlcN6P (glucosamine-6-phosphate [3]) [s⁻¹] | self-cleavage kobs at 160 uM GlcN6P (glucosamine-6-phosphate [4]) [s⁻¹] | self-cleavage kobs at 640 uM GlcN6P (glucosamine-6-phosphate [5]) [s⁻¹] | self-cleavage kobs at 2500 uM GlcN6P (glucosamine-6-phosphate [6]) [s⁻¹] | self-cleavage kobs at 10000 uM GlcN6P (glucosamine-6-phosphate [7]) [s⁻¹]
G37A U47A | 0.00374 ± 0.0017 | – | 4.6e-05 ± 1.8e-05 | 7.83e-05 ± 1.8e-05 | 0.000278 ± 4.8e-05 | 0.000752 ± 0.00014 | 0.00229 ± 0.00044
A64G U65C C68A | – | – | < 1e-05 | – | – | < 1e-05 | < 1e-05
A12C A15C | 0.00209 ± 0.00064 | 2000 ± 880 | 6.78e-05 ± 1.4e-05 | 0.000151 ± 2.5e-05 | 0.000451 ± 9e-05 | 0.000976 ± 0.00019 | 0.00216 ± 0.00038
G41A U57G | – | – | < 1e-05 | – | – | – | < 1e-05
G37U U69A | – | – | < 1e-05 | – | – | – | < 1e-05
G29U C34A C61U | – | – | < 1e-05 | – | < 1e-05 | – | –
G35A A42G | – | – | < 1e-05 | < 1e-05 | < 1e-05 | < 1e-05 | < 1e-05
C10U U55C | 3.56e-05 ± 9.4e-06 | – | < 1e-05 | – | – | – | 1.93e-05 ± 9e-06
G51C C61U G62C | – | – | < 1e-05 | – | – | – | < 1e-05
C11U A52U G60C | – | – | < 1e-05 | – | < 1e-05 | – | < 1e-05
A53C C71G | 0.00031 ± 7.7e-05 | 1290 ± 620 | – | 4.25e-05 ± 1.8e-05 | 0.000101 ± 1.6e-05 | 0.000182 ± 3.4e-05 | 0.000335 ± 7.4e-05
U65C C71A | 0.000104 ± 5.5e-06 | 481 ± 140 | – | – | 6.26e-05 ± 2.5e-05 | 8.23e-05 ± 2e-05 | 0.000102 ± 2.3e-05
G29U C34A | – | – | < 1e-05 | < 1e-05 | – | < 1e-05 | < 1e-05
U47A A53G U54G | – | – | 0.000659 ± 0.00016 | – | – | – | 0.0222 ± 0.0081
A36C C61U | – | 44.5 ± 18 | – | – | – | – | –
G29U U46G C50U G60U G66U | – | – | < 1e-05 | – | – | – | –
C11A U57C | < 1e-05 | – | – | – | < 1e-05 | – | –
G7U A53C C58A U69G C70U | 0.000741 ± 0.00023 | – | 7.41e-05 ± 3.3e-05 | – | – | 0.000875 ± 0.00036 | –
A14G G59A U65G G66A | – | – | < 1e-05 | – | – | < 1e-05 | –
C10U C68G | 2.34e-05 ± 4.7e-06 | – | – | – | – | 2.5e-05 ± 7.6e-06 | –
G32U A36U U46G A48U U56C G60U C61U | – | – | < 1e-05 | – | < 1e-05 | – | < 1e-05
A15G U30G C70U | – | – | 0.000184 ± 5.6e-05 | – | 0.00102 ± 0.00026 | – | 0.0318 ± 0.013
